Experimental findings from patent US20260193352A1 (published 2026) are described below.

This assay has as its target T1, cynomolgus monkey PD-1 Fc fusion (cynomolgus monkey, UniProt B0LAJ3 25-170).
T1 construct: also called Cyno PD-1
The assay can be described thus: SPR.

T1 sequence (B0LAJ3 entry or part of it limits assumed, form in doubt): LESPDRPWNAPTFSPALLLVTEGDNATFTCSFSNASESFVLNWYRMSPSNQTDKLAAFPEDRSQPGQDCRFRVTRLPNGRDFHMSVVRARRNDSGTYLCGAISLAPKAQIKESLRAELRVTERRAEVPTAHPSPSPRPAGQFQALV

B1: PD-1-binding agent (comprising SEQ ID NOs: 1 and 2) (antibody, V domains shown)
VH: EVQLLESGGGLVQPGGSLRLSCAASGFTFSSYDMSWVRQAPGKGLEWVSTISGGGSYTYYQDSVKGRFTISRDNSKNTLYLQMNSLRAEDTAVYYCASPYYAMDYWGQGTTVTVSS
VL: DIQLTQSPSFLSAYVGDRVTITCKASQDVGTAVAWYQQKPGKAPKLLIYWASTLHTGVPSRFSGSGSGTEFTLTISSLQPEDFATYYCQHYSSYPWTFGQGTKLEIKR
For the molecule B1, the “fold difference in KD (cynomolgus monkey PD-1 against human PD-1)” value is less than 2 fold.
